Target: bZIP domain of chicken CREB3 (chCREB3), Residues 206-280, His-tagged (chicken)
Test: crystal structure; DNA-free form; sitting-drop vapor diffusion at 4°C, 43% v/v MPD, 100 mM tri-sodium citrate pH 5.6, 10 mM magnesium chloride; molecular replacement; 3.95 Å

“bZIP domain of chicken CREB3 (chCREB3), Residues 206-280, His-tagged (domain or fragment)” showed a stoichiometry N of 2.
